The target of test [1] is T1, human MASP-1 (construct not stated) (human, UniProt P48740 20-699, limits assumed).
T1 sequence: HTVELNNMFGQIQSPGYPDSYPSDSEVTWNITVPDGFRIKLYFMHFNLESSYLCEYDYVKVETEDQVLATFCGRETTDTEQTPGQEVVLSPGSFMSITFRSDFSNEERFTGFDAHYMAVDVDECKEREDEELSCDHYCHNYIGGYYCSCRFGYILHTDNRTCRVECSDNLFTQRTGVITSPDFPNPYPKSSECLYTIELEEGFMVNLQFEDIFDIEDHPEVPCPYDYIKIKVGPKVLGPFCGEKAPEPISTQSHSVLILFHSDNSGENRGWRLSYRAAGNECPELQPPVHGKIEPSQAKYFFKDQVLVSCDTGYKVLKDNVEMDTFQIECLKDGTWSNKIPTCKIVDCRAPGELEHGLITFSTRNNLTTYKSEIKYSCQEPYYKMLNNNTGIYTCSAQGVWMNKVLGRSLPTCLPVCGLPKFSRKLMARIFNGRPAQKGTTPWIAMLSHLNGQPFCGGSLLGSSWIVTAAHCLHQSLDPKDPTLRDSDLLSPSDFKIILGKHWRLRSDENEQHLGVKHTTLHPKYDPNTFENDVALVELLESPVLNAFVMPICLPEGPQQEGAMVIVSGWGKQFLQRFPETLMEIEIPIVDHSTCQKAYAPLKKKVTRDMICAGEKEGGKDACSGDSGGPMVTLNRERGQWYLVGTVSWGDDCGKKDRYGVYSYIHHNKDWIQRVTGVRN
Nature of the test: DTLacO screen.

Test [2] has as its target T2, human MASP-3 (construct not stated) (human).
T2 construct: also called MASP-3 antigen
T2 chain: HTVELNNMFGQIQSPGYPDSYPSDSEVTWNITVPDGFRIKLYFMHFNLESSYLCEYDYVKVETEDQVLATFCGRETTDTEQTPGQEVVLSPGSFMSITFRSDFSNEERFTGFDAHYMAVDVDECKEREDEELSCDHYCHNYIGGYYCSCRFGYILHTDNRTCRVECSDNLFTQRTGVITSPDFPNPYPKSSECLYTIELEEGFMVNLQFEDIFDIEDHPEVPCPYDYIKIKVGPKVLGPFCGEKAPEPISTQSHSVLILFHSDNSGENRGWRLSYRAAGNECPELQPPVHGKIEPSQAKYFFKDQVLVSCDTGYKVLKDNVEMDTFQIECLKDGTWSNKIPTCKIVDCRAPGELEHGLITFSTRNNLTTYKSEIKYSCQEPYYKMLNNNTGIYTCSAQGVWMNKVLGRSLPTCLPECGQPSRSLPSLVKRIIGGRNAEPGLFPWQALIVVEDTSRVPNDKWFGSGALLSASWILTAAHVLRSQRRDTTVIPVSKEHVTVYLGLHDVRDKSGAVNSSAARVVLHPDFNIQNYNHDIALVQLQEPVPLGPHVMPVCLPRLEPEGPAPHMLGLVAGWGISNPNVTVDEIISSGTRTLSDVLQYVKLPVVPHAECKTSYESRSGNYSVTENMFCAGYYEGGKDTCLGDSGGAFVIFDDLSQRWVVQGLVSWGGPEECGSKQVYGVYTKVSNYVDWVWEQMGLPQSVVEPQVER
In words: not described at this place.

For test [3], the target named is T2, human MASP-3 (construct not stated). Nature of the test: cell-based or functional assay.
In test [4] the target is T3, recombinant human MASP-1A (S646A, CCP1-CCP2-SP fragment) (human, UniProt P48740 298-699, limits assumed).
T3 chain: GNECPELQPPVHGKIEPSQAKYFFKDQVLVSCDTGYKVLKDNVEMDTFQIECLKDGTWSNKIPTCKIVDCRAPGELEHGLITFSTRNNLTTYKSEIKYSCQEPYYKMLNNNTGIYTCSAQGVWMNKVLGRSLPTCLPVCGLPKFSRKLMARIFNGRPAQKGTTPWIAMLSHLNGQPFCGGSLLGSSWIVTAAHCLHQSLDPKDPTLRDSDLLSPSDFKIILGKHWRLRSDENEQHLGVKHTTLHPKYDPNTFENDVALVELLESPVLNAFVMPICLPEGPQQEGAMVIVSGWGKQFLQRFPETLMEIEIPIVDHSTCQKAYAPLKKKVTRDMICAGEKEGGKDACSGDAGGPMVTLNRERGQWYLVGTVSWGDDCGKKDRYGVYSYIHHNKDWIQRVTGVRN
Nature of the test: ELISA: recombinant MASP-1A (S646A, CCP1-CCP2-SP) coated directly on the plate, A450. In short, it runs like this: (§1)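 Candidate MASP-3 antibodies incubated 1 h at room temperature on the prepared plate, then detected with mouse anti-human kappa-HRP for 1 h. Developed 5 min with TMB; absorbance read at 450 nm.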

Test [5] addresses T4, human MASP-3 CCP1-CCP2-SP fragment (human).
T4 chain: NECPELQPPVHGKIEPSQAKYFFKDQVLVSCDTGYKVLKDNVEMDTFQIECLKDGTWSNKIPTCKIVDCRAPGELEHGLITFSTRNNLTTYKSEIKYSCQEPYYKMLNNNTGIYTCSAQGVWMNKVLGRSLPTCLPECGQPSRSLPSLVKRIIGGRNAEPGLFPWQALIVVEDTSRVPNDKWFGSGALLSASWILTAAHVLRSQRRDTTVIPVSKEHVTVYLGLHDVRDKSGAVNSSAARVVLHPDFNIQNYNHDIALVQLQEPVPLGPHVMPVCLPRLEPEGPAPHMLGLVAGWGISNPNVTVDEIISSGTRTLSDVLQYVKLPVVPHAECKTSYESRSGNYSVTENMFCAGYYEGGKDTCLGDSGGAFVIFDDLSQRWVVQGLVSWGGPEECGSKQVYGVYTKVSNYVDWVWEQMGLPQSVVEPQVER
Nature of the test: cell-based or functional assay.

The target of test [6] is T2, human MASP-3 (construct not stated). Nature of the test: cell-based or functional assay.
Test [7] concerns the target T4, human MASP-3 CCP1-CCP2-SP fragment. In words: sandwich ELISA, MASP-3 CCP1-CCP2-SP captured by αM3-259. The procedure, abridged:
as §1

Test [8] has the same target. Nature of the test: sandwich ELISA: human MASP-3 CCP1-CCP2-SP captured on aM3-259, mAb detected with anti-human kappa-HRP, A450. The protocol:
The plate was then washed (PBS-T, 0.05%) and the candidate MASP-3 antibodies were added followed by incubation for one hour at room temperature. The plate was washed (PBS-T, 0.05%) and a detection antibody was added (mouse anti-human kappa-HRP, SouthernBiotech #9230-05) for one hour at room temperature. After another wash (PBS-T, 0.05%) the plate was developed (5 minutes) with OPT EIA TMB (BD Biosciences #555214). Absorbance reading at A450 was measured using the Spectramax M5e plate reader.
(In general: ELISA stands for enzyme-linked immunosorbent assay.)

For test [9], the target named is T5, recombinant human MASP-2 (CCP1-CCP2-SP fragment) (human, UniProt O00187 298-686, limits assumed).
T5 construct: domain: CCP1-CCP2-SP fragment
T5 sequence (O00187 298-686 limits assumed): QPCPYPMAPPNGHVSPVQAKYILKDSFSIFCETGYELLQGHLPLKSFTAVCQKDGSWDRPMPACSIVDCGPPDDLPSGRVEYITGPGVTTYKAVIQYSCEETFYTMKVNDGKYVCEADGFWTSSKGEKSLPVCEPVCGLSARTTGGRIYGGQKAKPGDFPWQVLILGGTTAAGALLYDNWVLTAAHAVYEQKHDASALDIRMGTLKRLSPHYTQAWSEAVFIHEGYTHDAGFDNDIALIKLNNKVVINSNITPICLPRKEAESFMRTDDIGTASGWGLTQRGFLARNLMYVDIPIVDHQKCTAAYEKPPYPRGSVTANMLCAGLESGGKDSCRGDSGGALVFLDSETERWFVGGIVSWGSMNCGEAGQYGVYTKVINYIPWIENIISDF
In words: ELISA: recombinant MASP-2 (CCP1-CCP2-SP) coated directly on the plate, A450. The procedure, abridged: as §1

The target of test [10] is T6, recombinant full-length mouse MASP-3 (mouse).
T6 construct: Entry is with leader; also called mouse full length MASP-3
T6 chain: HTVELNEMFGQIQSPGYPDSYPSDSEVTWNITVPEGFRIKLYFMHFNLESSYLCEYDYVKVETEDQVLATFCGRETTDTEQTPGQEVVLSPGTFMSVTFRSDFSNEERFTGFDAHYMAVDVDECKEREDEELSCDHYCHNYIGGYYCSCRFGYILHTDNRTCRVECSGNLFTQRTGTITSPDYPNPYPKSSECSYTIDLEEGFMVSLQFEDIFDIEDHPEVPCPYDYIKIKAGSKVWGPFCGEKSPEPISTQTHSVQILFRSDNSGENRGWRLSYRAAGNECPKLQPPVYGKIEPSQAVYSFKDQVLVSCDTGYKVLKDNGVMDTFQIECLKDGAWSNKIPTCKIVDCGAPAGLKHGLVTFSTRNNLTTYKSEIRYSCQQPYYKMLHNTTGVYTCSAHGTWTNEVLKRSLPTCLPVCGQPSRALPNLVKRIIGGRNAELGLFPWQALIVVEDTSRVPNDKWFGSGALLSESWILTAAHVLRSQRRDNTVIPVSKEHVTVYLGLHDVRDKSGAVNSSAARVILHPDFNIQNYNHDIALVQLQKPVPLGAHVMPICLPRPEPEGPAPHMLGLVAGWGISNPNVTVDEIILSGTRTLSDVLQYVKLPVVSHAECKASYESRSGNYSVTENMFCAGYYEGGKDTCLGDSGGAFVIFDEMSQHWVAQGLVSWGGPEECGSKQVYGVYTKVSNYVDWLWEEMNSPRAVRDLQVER
Nature of the test: sandwich ELISA, full-length mouse MASP-3 captured by αM3-259. In short, it runs like this: as §1

For test [11], the target named is T2, human MASP-3 (construct not stated). In words: cross-species binding experiments.
Test [12] has as its target T7, recombinant full-length human MASP-3 (human).
T7 construct: Recombinant, full-length; also called full-length human MASP-3 protein; rMASP-3 (full-length)
T7 chain: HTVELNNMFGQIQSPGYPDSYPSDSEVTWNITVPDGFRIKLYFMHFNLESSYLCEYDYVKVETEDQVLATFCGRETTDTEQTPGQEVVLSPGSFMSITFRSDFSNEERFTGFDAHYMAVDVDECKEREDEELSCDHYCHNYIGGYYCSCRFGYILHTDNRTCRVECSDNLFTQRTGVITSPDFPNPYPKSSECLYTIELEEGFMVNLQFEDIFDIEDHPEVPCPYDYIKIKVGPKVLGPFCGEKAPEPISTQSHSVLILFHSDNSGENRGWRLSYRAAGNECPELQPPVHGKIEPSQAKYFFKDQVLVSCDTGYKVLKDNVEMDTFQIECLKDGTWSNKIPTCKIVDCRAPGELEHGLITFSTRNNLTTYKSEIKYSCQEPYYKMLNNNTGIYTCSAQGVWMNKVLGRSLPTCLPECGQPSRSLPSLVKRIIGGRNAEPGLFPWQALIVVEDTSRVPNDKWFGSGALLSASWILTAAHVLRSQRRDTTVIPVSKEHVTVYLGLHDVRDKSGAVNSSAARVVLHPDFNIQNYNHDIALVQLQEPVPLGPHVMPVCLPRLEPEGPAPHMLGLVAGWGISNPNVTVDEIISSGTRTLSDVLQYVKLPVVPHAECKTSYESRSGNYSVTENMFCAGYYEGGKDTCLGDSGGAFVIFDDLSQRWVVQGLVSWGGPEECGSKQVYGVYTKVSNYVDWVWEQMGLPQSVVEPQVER
In words: ELISA, full-length human MASP-3 held by a capture antibody, monovalent Fab, anti-kappa-HRP. The source says: (§2) Binding affinity determinations were made by coating 96-well plates with an anti-MASP-3 capture antibody that binds the protein from multiple species.

Test [13] deals with T2, human MASP-3 (construct not stated). In words: ELISA, monovalent Fab.
The target of test [14] is T6, recombinant full-length mouse MASP-3. Nature of the test: ELISA, full-length mouse MASP-3 held by a capture antibody, monovalent Fab, anti-kappa-HRP.
Text: as §2

B1: MASP-1 clone 1E10 (antibody, human IgG1, V domains shown)
VH: AVTLDESGGGLQTPGGALSLVCKASGFTFSSYDMVWVRQAPGKGLEFVAGISRNDGRYTEYGSAVKGRATISRDNGQSTVRLQLNNLRAEDTATYYCARDAGGSAYWFDAGQIDAWGHGTEVIVSS
VL: ALTQPASVSANPGETVKITCSGGGSYAGSYYYGWYQQKAPGSAPVTLIYYNNKRPSDIPSRFSGSLSGSTNTLTITGVRADDEAVYFCGSADNSGAAFGAGTTLTVL
notes: Chicken V regions from the DTLacO platform; also called mAb 1E10; mAb1E10
B1: the binding result in test [1] is “binds”.

B2: MASP-3 mAb 13B1 (mouse-human chimeric IgG4) (antibody, V domains shown)
VH: QVQLKQSGAELMKPGASVKLSCKATGYTFTGKWIEWVKQRPGHGLEWIGEILPGTGSTNYNEKFKGKATFTADSSSNTAYMQLSSLTTEDSAMYYCLRSEDVWGTGTTVTVSS
VL: DIVMTQSPSSLAVSAGEKVTMSCKSSQSLLNSRTRKNYLAWYQQKPGQSPKLLIYWASTRESGVPDRFTGSGSGTDFTLTISSVQAEDLAVYYCKQSYNIPTFGGGTKLEIKR
notes: also called mAb M3-1; M3-1
A word on the EC50: it is the concentration giving half of the maximal effect. In test [2], B2 returned a binding affinity not above 500 pM. The “Inhibition of Factor Bb Deposition on Zymosan (IC50 nM), 10% factor D-depleted human serum with pro-factor D” value in [3] worked out at 0.3 nM. The binding result in [4] and in test [9] was “no binding (tested: about 20 nM (log10 about 1.3))” throughout. In [5], the “inhibition of MASP-3-dependent fluorogenic tripeptide (BOC-V-P-R-AMC) cleavage” value was 30.1 nM. Besides, the “IC50, factor Bb deposition on zymosan in 10% CFD-depleted human serum with pro-CFD (flow cytometry)” value in [6] amounted to 0.311 nM. Further, the values for the EC50 in [7], in test [8] and in test [10] were 0.059 nM, 0.089 nM and 0.035 nM, respectively.

B3: 13B1 Parental Fab (Fab, V domains shown)
VH: QVQLKQSGAELMKPGASVKLSCKATGYTFTGKWIEWVKQRPGHGLEWIGEILPGTGSTNYNEKFKGKATFTADSSSNTAYMQLSSLTTEDSAMYYCLRSEDVWGTGTTVTVSS
VL: DIVMTQSPSSLAVSAGEKVTMSCKSSQSLLNSRTRKNYLAWYQQKPGQSPKLLIYWASTRESGVPDRFTGSGSGTDFTLTISSVQAEDLAVYYCKQSYNIPTFGGGTKLEIKR
notes: Monovalent Fab; also called M3-1 Fab; 13B1 Fab
In test [11], B3 returned an avidity of less than 500 pM. The values for the EC50 in [12], in [13] and in test [14] were approximately 0.117 nM, 0.123 nM and approximately 0.214 nM, respectively.

Source of the values: patent publication US20200270125A1 (OMEROS, published 2020).
